Earlier results in paper PMC5590664.

Target: HIV-1 capsid protein (full-length) (Human immunodeficiency virus 1) (UniProt O93182)

Chain of HIV-1 capsid protein (full-length) (O93182 133-363): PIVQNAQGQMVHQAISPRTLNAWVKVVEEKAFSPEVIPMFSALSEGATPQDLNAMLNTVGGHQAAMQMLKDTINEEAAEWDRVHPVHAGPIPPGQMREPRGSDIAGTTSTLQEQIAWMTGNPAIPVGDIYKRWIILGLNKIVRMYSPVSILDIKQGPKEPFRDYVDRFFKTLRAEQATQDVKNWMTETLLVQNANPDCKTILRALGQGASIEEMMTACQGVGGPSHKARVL

Substance: HIV-1 capsid protein (full-length) (from UniProt O93182)
- Kd: 40 µM
